# The supplement of paper PMC10567573
# ± gives the standard deviation.
# Assay: protein stability index of a GFP-peptide fusion (GPS, HEK-293T) (PSI 1-6); higher = more stable
# Settings: c terminus: a fixed tail appended
# 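Further: 24-mer peptide tiles fused after GFP, lentivirally expressed, FACS-sorted into six equal bins by GFP/DsRed ratio, decoded by Illumina sequencing, PSI is the read-weighted mean bin number.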
Sequence,protein stability index (treatment: DMSO),"protein stability index (treatment: MLN4924 1 uM, 8 h)"
SQTDRGASAGKRRCFWLGMEGLET [SDE2],2.87 ± 0.45,2.96 ± 0.14
SREMLQQSKILKVIRKNIVKKCLE [HSP90AB1],2.56 ± 0.31,2.42 ± 0.57
SRFSSSTEQSSASRLMRRHKRRRR [DVL3],5.17 ± 0.084,5.257 ± 0.022
SRGACTSHDPQSSRGSRRRRRQRS [KCNA4],5.39 ± 0.4,5.53 ± 0.32
SRGTSQTPNASSPGNPTALANGTV [LPCAT4],4.73 ± 0.051,4.77 ± 0.068
SRKKPIWNVLMWTSLFLGNGVLLC [SOAT1],2.67 ± 0.81,2.73 ± 0.61
SRRLQLGSEENGRYFSLSLMSGAL [PCDHGC5],2.27 ± 0.4,2.3 ± 0.35
SRTVRQFQFTDWPEQGVPKSGEGF [PTPRD],3.88 ± 0.25,4.02 ± 0.68
SRVNNASYCPHCGEESSKAKEVTI [EHMT1],3.39 ± 0.14,3.37 ± 0.32
SSCTHVTGNYRKGNAHLGYSLVTH [ADAMTSL2],2.92 ± 0.7,2.77 ± 0.42
SSEAFHNYMNAAMVHINRALKLII [RTN3],2.62 ± 0.46,2.06 ± 0.38
SSFSRPLGYPYVNSVSSHASSPYI [DLX1],2.62 ± 0.18,2.79 ± 0.51
SSGCFMEYLENQVIKDKDDSVDAQ [RNF180],4.59 ± 0.21,4.63 ± 0.19
SSKSRAAPSPQEALVRLRETEEML [CHMP4C],2.79 ± 0.58,3.45 ± 0.81
SSPPQGASPVPESSLTADLLSVDA [SNAP91],5.28 ± 0.18,5.34 ± 0.16
SSPQGKSGPEAARAGGWVSGEEFY [PKD2L1],4.51 ± 0.2,4.54 ± 0.17
SSSASYGGGFGGGSCQLGGGRGVS [KRT13],3.71 ± 0.65,3.94 ± 0.36
SSSKGTIRLCDMRASALCDRHTKF [PPP2R2B],3.01 ± 0.048,3.14 ± 0.078
SSSYAGQFRVIGPRHPIRALVGDE [MOG],3.54 ± 0.31,3.48 ± 0.32
SSVQSYPGSASLAQSRLEDPGQDL [DLX1],4.89 ± 0.28,5.09 ± 0.19
STATSITLTWDSGNPEPVSYYIIQ [PTPRD],2.83 ± 0.59,2.9 ± 0.65
STDIGALMYPSYTFSGDVQLAQDD [MMP1],4.9 ± 0.13,4.74 ± 0.28
STLVEVTLGEVPAAESPDPPQSPQ [MAGEA3],5.39 ± 0.14,5.27 ± 0.17

Sequence,protein stability index (treatment: DMSO),"protein stability index (treatment: MLN4924 1 uM, 8 h)"
SVKKQGETVADVRTLPNASTVDNI [MLH1],5.12 ± 0.12,5.25 ± 0.14
SVPMNGTSIQWKNHDQNNHNTDRS [EDNRA],4.5 ± 0.29,4.92 ± 0.24
SVRILGSLVAILLVFLITAILVKV [SLC29A1],2.9 ± 0.44,2.85 ± 0.66
SVWVLRDFPEDGLKIFTEDLPEVE [VPS39],3.55 ± 0.34,3.59 ± 0.33
SWKESSMNIIELEIPDQNIDVEAL [GMCL1],4.26 ± 0.23,4.08 ± 0.29
SYGGGSASSQHSEGSRSSGSNRSG [DVL3],5.23 ± 0.081,5.16 ± 0.29
SYMRNENVISELNIEDYFSHHLAV [FBXO39],2.26 ± 0.23,2.4 ± 0.38
SYSLSRKKIVHYTCFDQRKRANAA [CDC14A],2.88 ± 0.28,3.05 ± 0.12
TAFLLNIQLFEELQELLTHDTKDQ [HMOX1],2.32 ± 0.28,2.49 ± 0.44
TAGQERYRAITSAYYRGAVGALLV [RAB11A],2.22 ± 0.24,2.19 ± 0.24
TAPEEVPKVSDQALVSAHSEWQRK [DMRTC1],4.88 ± 0.61,5.07 ± 0.39
TARPFGAPPPADSAPQQNGQPLRP [PDLIM7],4.84 ± 0.52,4.92 ± 0.058
TEYIESPDVENEVKRLLRSDAEAV [TAF7L],4.97 ± 0.33,5.03 ± 0.22
TFGFITMTPQLFINYKLKSVAHLP [CLPTM1],2.59 ± 0.47,2.92 ± 0.86
TGDPLPEISKDNSCKENCTCSSCL [EDARADD],5.47 ± 0.3,5.47 ± 0.26
TGIEGNWGRLLEQVGTMALWASQR [ZBED2],1.98 ± 0.57,2.48 ± 0.49
TGILLHPWLRQDPMPLAPTRSHLW [TRIB3],2.11 ± 0.25,2.18 ± 0.089
TGVFITLSIVLERMRYEGVVDIFQ [PTPRD],–,3.66 ± 0.2
THFASQEFFSANAISDQLLGAGSD [ADAMTSL2],4.27 ± 0.23,4.23 ± 0.25
TIENILDNDPRDLIGDFSKGYLFH [CDC25A],2.58 ± 0.38,2.69 ± 0.19
TIPLFVQLLYSPIENIQRVAAGVL [CTNNB1],2.77 ± 0.78,2.71 ± 0.38
TISFICRELDAISTNEEEKEENEA [PRIM1],5.16 ± 0.26,5.16 ± 0.1
